{"source": "paper PMC9328677", "parents": {"B1": {"name": "truncated APLF^AD construct corresponding to residues 449 to 490 (APLF^AD-Δ) [Homo sapiens] / stoichiometric mixture of full-length Drosophila melanogaster -H2B and H3-H4 (octamer-mix) [Drosophila … (parent)", "chain 1": "GLDEDNDNVGQPNEYDLNDSFLDDEEEDYEPTDEDSDWEPGKE", "chain 2": "not shown", "chain 3": "not shown", "chain 4": "not shown", "chain 5": "not shown"}}}
{"variants_of": "B1", "assay": "ITC", "conditions": "with stoichiometric mixture of full-length Drosophila melanogaster H2A-H2B and H3-H4 (octamer-mix) [Drosophila melanogaster]", "units": {"Kd": "nM"}}
{"variant": "chain 1 Y15A F21A Y29A W38A", "Kd": 1220}
